Consider three proteins from paper PMC7385938 (Cell Stress & Chaperones, 2020).

The data set deals with the molecule itself. The experiment in a line: non-reducing LDS-PAGE of proteoliposomes.

B1: HSPA1-N (N-terminal end domain of HSPA1) (domain or fragment)
chain: not shown
B1: the binding result is recorded as “binds”.

B2: HSPA5-FL (full-length human HSPA5 without the leading signal peptide for ER translocation) (natural protein)
chain: not shown
With B2, the binding result was “binds”.

B3: HSPA5-N (N-terminal end domain of HSPA5) (domain or fragment)
chain: not shown
Consider B3, for which the “stoichiometry N” value was 2.

A word on the stoichiometry N: it is a count of units in the complex or per binding partner.
